# US20170101470A1 (PROTHENA BIOSCIENCES, published 2017)
# T1: human MCAM expressed on CHO cells (full length human MCAM gene) (human, UniProt P43121 24-646)
# T1 construct: also called hMCAM expressing CHO cells; CD146
# T1 chain: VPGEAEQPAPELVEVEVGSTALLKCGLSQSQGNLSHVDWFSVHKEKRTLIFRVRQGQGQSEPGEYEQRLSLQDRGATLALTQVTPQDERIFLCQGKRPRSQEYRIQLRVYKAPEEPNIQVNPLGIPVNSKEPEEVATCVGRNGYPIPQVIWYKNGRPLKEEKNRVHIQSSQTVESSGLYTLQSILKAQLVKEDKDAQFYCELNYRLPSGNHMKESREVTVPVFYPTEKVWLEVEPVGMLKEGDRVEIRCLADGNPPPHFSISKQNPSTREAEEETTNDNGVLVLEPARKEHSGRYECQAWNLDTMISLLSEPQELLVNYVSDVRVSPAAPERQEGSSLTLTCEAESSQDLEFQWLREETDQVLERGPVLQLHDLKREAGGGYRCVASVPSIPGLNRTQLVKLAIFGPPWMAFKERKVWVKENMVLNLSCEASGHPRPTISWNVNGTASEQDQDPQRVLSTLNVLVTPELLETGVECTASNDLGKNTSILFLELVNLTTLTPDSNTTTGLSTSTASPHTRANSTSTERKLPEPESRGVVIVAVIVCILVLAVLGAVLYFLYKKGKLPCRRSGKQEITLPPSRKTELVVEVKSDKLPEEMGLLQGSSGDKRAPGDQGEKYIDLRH
# T2: recombinant hMCAM-His (human, UniProt P43121 24-559)
# T2 chain: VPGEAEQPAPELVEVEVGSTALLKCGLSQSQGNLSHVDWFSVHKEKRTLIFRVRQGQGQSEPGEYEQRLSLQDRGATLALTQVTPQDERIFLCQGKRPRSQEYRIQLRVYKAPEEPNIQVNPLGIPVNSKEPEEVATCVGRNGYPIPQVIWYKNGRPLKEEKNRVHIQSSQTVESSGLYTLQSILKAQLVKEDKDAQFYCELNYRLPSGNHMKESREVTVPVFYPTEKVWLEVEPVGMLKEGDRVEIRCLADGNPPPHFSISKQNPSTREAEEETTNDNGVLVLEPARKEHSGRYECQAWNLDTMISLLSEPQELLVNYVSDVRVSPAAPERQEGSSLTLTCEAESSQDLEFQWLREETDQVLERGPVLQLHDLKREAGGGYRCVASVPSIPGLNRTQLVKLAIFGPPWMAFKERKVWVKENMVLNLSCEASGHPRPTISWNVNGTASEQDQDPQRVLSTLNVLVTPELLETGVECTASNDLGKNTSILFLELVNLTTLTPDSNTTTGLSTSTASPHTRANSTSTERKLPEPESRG
# B1: humanized anti-MCAM antibody h2120_VH1 + h2120_VL1 (antibody, V domains shown)
# VH: QVTLKESGPVLVKPTETLTLTCTVSGFSLTSNGVSWVRQPPGKALEWIAAISSGGTTYYNSAFKSRLTISRDTSKSQVVLTMTNMDPVDTATYYCARRYGYGWYFDFWGQGTLVTVSS
# VL: DIQMTQSPSSLSASVGDRVTITCKASQNIYNSLAWYQQKPGKAPKVLIFNANSLQTGIPSRFSGSGSGTDFTLTISSLQPEDFATYYCQQFYSGYTFGQGTKLEIK
# notes: Human IgG1 / human kappa; also called h2120VH1VL1; Standard VH + standard VL
# B2: humanized anti-MCAM antibody h2120_VH1 + h2120_VL2 (antibody, V domains shown)
# VH: QVTLKESGPVLVKPTETLTLTCTVSGFSLTSNGVSWVRQPPGKALEWIAAISSGGTTYYNSAFKSRLTISRDTSKSQVVLTMTNMDPVDTATYYCARRYGYGWYFDFWGQGTLVTVSS
# VL: DIQMTQSPSSLSASVGDRVTITCKASQNIYNSLAWYQQKPGKAPKVLIFNANSLQTGVPSRFSGSGSGTDFTLTISSLQPEDFATYYCQQFYSGYTFGQGTKLEIK
# notes: Human IgG1 / human kappa; also called h2120VH1VL2; Standard VH + aggressive VL
# B3: humanized anti-MCAM antibody h2120_VH4 + h2120_VL3 (antibody, V domains shown)
# VH: QVTLKESGPVLVKPTETLTLTCTVSGFSLTSQGVSWVRQPPGKALEWIAAISSGGTTYYNSAFKSRLTISRDTSKSQVVLTMTNMDPVDTATYYCARRYGYGWYFDFWGQGTLVTVSS
# VL: DIQMTQSPSSLSASVGDRVTINCKASQNIYNSLAWYQQKPGKAPKVLIFNANSLQTGIPSRFSGSGSGTDFTLTISSLQPEDFATYYCQQFYSGYTFGQGTKLEIK
# notes: Human IgG1 / human kappa; also called h2120VH4VL3; N-Q deamidate VH + conservative VL
# Assays:
# [1] = biological target: T1, human MCAM expressed on CHO cells (full …); test: laminin/FACS assay: blocking of recombinant laminin 411 binding to hMCAM expressing CHO cells, relative to rodent 2120, Expt#1
# Description: (§1) Following incubation for 30-45 minutes, the cells were washed and anti-laminin conjugated to AF650 (NovusBio) was added to detect the bound laminin. The cells were run on a flow cytometer to measure the laminin binding signal.
# [2] = biological target: T1, human MCAM expressed on CHO cells (full …); test: laminin/FACS assay: blocking of recombinant laminin 411 binding to hMCAM expressing CHO cells, relative to rodent 2120, Expt#2
# Description: as §1
# recombinant hMCAM-His [3] = biological target: T2, recombinant hMCAM-His; test: competitive ELISA on coated hMCAM-His, competitor biotinylated rodent or chimeric 2120; IC50 relative to rodent 2120
# Description: The apparent affinities of the humanized antibodies were compared to the parental rodent or chimeric antibody in a competitive ELISA according to the following protocol: ELISA plates were coated with recombinant hMCAM-His, and blocked with casein buffer to prevent non-specific binding. Biotinylated rodent or chimeric antibody was added at a subsaturating concentration, in the presence or absence of 3× increasing concentrations of unlabeled competitor (humanized antibody, rodent, or chimeric). After washing to remove unbound antibody, streptavidin HRP was added to allow detection of the biotinylated antibody. The ELISA was developed with TMB substrate and the OD450 was measured. The IC50 of the unlabeled competitor was determined using the GraphPad Prism5 software.
# recombinant hMCAM-His [4] = biological target: T2, recombinant hMCAM-His; test: ForteBio Octet Red, antibody on anti-human Fc sensors, hMCAMHis analyte, 1:1 fit; affinity relative to rodent 2120, first Forte column
# Description: The affinities were measured using the ForteBio Octet Red. Anti-human Fc sensors were used to capture the humanized antibodies, and several concentrations of hMCAMHis analyte were used to determine the affinity using a 1:1 fitting model.
binder,measurement,setting,value
B1,Fold over rodent (Blocking),[1],2 fold
same,Fold over rodent (Blocking),[2],3.5 fold
same,Fold over rodent (ELISA),recombinant hMCAM-His [3],3.1 fold
same,Fold over rodent (Forte),recombinant hMCAM-His [4],8.8 fold
B2,Fold over rodent (Blocking),[1],4.6 fold
same,Fold over rodent (Blocking),[2],12.6 fold
same,Fold over rodent (ELISA),recombinant hMCAM-His [3],3.1 fold
same,Fold over rodent (Forte),recombinant hMCAM-His [4],10.8 fold
B3,Fold over rodent (Blocking),[1],3.8 fold
same,Fold over rodent (Blocking),[2],5.6 fold
same,Fold over rodent (ELISA),recombinant hMCAM-His [3],5 fold
same,Fold over rodent (Forte),recombinant hMCAM-His [4],17.4 fold
